From patent US20180066036A1 (APOGENIX, published 2018)

Key:
[1] = biological target: CD40 (native receptor on the surface of human cells) (human, UniProt P25942 21-277); test: cell-based or functional assay
[2] = biological target: T1, human CD40-Fc (Enzo, catalogue number ALX-522-016-C050) (human, UniProt P25942 21-193); test: QCM (Attana A100), human CD40-Fc immobilized, analyte at 1, 5 and 10 µg/ml
T1 construct: Bought reagent; also called immobilized CD40-receptor; not shown: Fc part of the bought fusion protein, not described
T1 sequence (P25942 21-193 limits assumed): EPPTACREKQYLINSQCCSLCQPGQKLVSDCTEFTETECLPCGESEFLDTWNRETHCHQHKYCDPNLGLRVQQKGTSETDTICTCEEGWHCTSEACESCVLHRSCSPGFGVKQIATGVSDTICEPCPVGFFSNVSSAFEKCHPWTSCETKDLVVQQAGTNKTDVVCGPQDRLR
Method: The equilibrium binding constants (KD) of trivalent constructs of CD40L (e.g.: PROTEIN X) and hexavalent constructs of CD40L (e.g. PROTEIN A, PROTEIN B, and PROTEIN C) to CD40 was calculated based on kinetic binding data (kₒₙ and koff) determined with an automated biosensor system (Attana A100). The A100 allows to investigate molecular interactions in real-time based on the Quartz Crystal Microbalance (QCM) technique.
For this purpose human CD40-Fc, purchased from Enzo (catalogue number: ALX-522-016-C050), was immobilized on the surface of a carboxyl-activated QCM-chip. Trimeric and hexameric CD40L-constructs were used as soluble analyte at concentrations of 1, 5, and 10 μg/ml. Binding (kₒₙ) and dissociation (koff) was analyzed.

Chain of CD40 (native receptor on the surface of human cells) (P25942 21-277): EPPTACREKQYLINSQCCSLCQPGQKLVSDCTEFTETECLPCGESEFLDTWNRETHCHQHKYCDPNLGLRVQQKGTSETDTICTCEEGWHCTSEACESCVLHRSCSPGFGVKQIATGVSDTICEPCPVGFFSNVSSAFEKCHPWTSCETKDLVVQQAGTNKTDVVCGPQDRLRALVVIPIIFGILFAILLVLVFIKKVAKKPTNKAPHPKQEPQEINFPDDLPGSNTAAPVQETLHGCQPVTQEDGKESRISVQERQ

| CD86 (MFI), monocytes 3 d, 10 ng/mL [1] | CD86 (MFI), monocytes 3 d, 100 ng/mL [1] | CD86 (MFI), monocytes 3 d, 1000 ng/mL [1] | HLA-DR,DP (MFI), monocytes 3 d, 10 ng/mL [1] | HLA-DR,DP (MFI), monocytes 3 d, 100 ng/mL [1] | HLA-DR,DP (MFI), monocytes 3 d, 1000 ng/mL [1] | Percentage of macrophages that are CD86+, 3 d, 10 ng/mL [1] | Percentage of macrophages that are CD86+, 3 d, 100 ng/mL [1] | Percentage of macrophages that are CD86+, 3 d, 1000 ng/mL [1] | Percentage of macrophages that are CD206+ and CD163+ (M2-like), 3 d, 10 ng/mL [1] | Percentage of macrophages that are CD206+ and CD163+ (M2-like), 3 d, 100 ng/mL [1] | Percentage of macrophages that are CD206+ and CD163+ (M2-like), 3 d, 1000 ng/mL [1] | Percentage of macrophages that are HLA-DR,DP+, 3 d, 10 ng/mL [1] | Percentage of macrophages that are HLA-DR,DP+, 3 d, 100 ng/mL [1] | Percentage of macrophages that are HLA-DR,DP+, 3 d, 1000 ng/mL [1] | Kd [2] | Binder |
| --- | --- | --- | --- | --- | --- | --- | --- | --- | --- | --- | --- | --- | --- | --- | --- | --- |
| 11 MFI | 11 MFI | 12 MFI | 26 MFI | 26 MFI | 31 MFI | 7% | 8% | 16% | 17% | 21% | 10% | 5% | 6% | 12% | 9.05 nM | PROTEIN X (ligand, Three identical polypeptides; also called trivalent control protein; homotrimeric CD40L-RBD stabilized by RB69 trimerisation scaffold) QIAAHVISEASSKTTSVLQWAEKGYYTMSNNLVTLENGKQLTVKRQGLYYIYAQVTFCSNREASSQAPFIASLCLKSPGRFERILLRAANTHSSAKPCGQQSIHLGGVFELQPGASVFVNVTDPSQVSHGTGFTSFGLLKLGSGSSGSSGSSGSGYIEDAPSDGKFYVRKDGAWVELPTASGPSSSSSSAWSHPQFEK |
| 11 MFI | 12 MFI | 11 MFI | 26 MFI | 29 MFI | 22 MFI | 7% | 7% | 8% | 21% | 23% | 21% | 5% | 7% | 2% |  | PROTEIN-X2 (ligand) QIAAHVISEASSKTTSVLQWAEKGYYTMSNNLVTLENGKQLTVKRQGLYYIYAQVTFCSNREASSQAPFIASLCLKSPGRFERILLRAANTHSSAKPCGQQSIHLGGVFELQPGASVFVNVTDPSQVSHGTGFTSFGLLKLGSSSSSSAWSHPQFEK |
